Experimental data reported in the supplement of paper PMC7877785.
± gives the uncertainty stated by the source.

Assay: self-splicing fitness, log relative to wild type (ln ratio); higher = more splicing; Tetrahymena group I intron in knt gene, E. coli kanamycin selection, DiMSum; sequences stand for … in CUCUCU…GGAGGGAAAAGUUAUCAGGCAUGCACCUGGUAGCUAGUCUUUAAACCAAUAGAUUGCAUCGGUUUAAAAGGCAAGACCGUCAAAUUGCGGGAAAGGGGUCAACAGCCGUUCAGUACCAAGUCUCAGGGGAAACUUUGAGAUGGCCUUGCAAAGGGUAUGGUAAUAAGCUGACGGACAUGGUCCUAACCACGCAGCCAAGUCCUAAGUCAACAGAUCUUCUGUUGAUAUGGAUGCAGUUCACAGACUAAAUGUCGGUCGGGGAAGAUGUAUUCUUCUCAUAAGAUAUAGUCGGACCUCUCCUUAAUGGGAGCUAGCGGAUGAAGUGAUGCAACACUGGAGCCGCUGGGAACUAAUUUGUAUGCGAAAGUAUAUUGAUUAGUUUUGGAGUACUCGUGGUCG
Summary of the method: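 Library with all eight P1ex-region intron nucleotides randomised, intron inside the knt kanamycin-resistance gene on pET-22b(+), in E. coli BL21(DE3). Cells grew overnight at 37°C or 30°C on LB agar with or without 25 μg/mL kanamycin (plus 100 μg/mL carbenicillin, 50 μM IPTG, 0.2% rhamnose), in six replicate transformations. Pooled colonies were amplicon-sequenced on Illumina HiSeq 2500. DiMSum fitness is the error-weighted combination of wild-type-normalised replicate fold changes, kanamycin versus none.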

| Sequence | self-splicing fitness (ln) (30 °C) | self-splicing fitness (ln) (37 °C) |
| --- | --- | --- |
| CUGUAGCAAUAUUACGAAUC | -3.03 ± 0.35 |  |
| GGCGAGCAAUAUUACGGAGA |  | -1.69 ± 0.39 |
| UCGUAGCAAUAUUACGCGAU | -3.29 ± 0.24 | -2.36 ± 0.28 |
| GUUUAGCAAUAUUACGCUUC |  | -1.36 ± 0.43 |
| AUUGAGCAAUAUUACGCUUU | -2.92 ± 0.24 | -1.29 ± 0.26 |
| ACUAAGCAAUAUUACGUCUG | -1.37 ± 0.084 | -0.847 ± 0.1 |
| CCAUAGCAAUAUUACGCAGA | -2.96 ± 0.21 | -2.16 ± 0.24 |
| UAUAAGCAAUAUUACGAAGU | -3.7 ± 0.35 | -2.71 ± 0.38 |
| GCAGAGCAAUAUUACGUCUA | -2.7 ± 0.23 | -2.57 ± 0.24 |
| UAGGAGCAAUAUUACGAGGA | -2.78 ± 0.37 |  |
| GUCUAGCAAUAUUACGAUAA | -1.09 ± 0.22 | 0.55 ± 0.23 |
| AAUGAGCAAUAUUACGCCAU | -2.37 ± 0.39 | -1.9 ± 0.48 |
| UUUCAGCAAUAUUACGACCG | 0.263 ± 0.18 | -0.377 ± 0.29 |
| CCCUAGCAAUAUUACGGUUU | -3.31 ± 0.17 | -2.87 ± 0.17 |
| GGUUAGCAAUAUUACGGCGU | -0.725 ± 0.1 | 0.137 ± 0.13 |
| UUUGAGCAAUAUUACGAACU | -3.36 ± 0.28 | -2.77 ± 0.31 |
| UAUUAGCAAUAUUACGAAUG | -0.433 ± 0.082 | -0.322 ± 0.11 |
| AAGAAGCAAUAUUACGUGGC | -4.15 ± 0.22 | -2.99 ± 0.2 |
| UAGCAGCAAUAUUACGGGGC | -3.58 ± 0.21 | -3.17 ± 0.27 |
| GUGCAGCAAUAUUACGGUCG | -1.29 ± 0.053 | -0.792 ± 0.075 |
| ACCAAGCAAUAUUACGCUAG | -2.03 ± 0.071 | -1.52 ± 0.1 |
| CUACAGCAAUAUUACGUGUU | -3.08 ± 0.16 | -2.94 ± 0.15 |
| AGCUAGCAAUAUUACGUCUC | -4.51 ± 0.39 | -2.86 ± 0.29 |
| CUGCAGCAAUAUUACGGUCG | -0.487 ± 0.077 | 0.0459 ± 0.09 |
| UUAUAGCAAUAUUACGAUGA | -0.778 ± 0.12 | 0.516 ± 0.14 |
| GUCCAGCAAUAUUACGCAAA | -1.46 ± 0.12 | -0.457 ± 0.11 |

| Sequence | self-splicing fitness (ln) (30 °C) | self-splicing fitness (ln) (37 °C) |
| --- | --- | --- |
| CCGCAGCAAUAUUACGUGGC | -3.29 ± 0.16 | -2.3 ± 0.2 |
| GACAAGCAAUAUUACGCCAA | -2.03 ± 0.14 | -1.61 ± 0.12 |
| CUAAAGCAAUAUUACGGCCU | -3.01 ± 0.15 | -2.5 ± 0.28 |
| GGGCAGCAAUAUUACGGGAU | -4.22 ± 0.42 | -1.2 ± 0.17 |
| AAGUAGCAAUAUUACGGACA | -1.7 ± 0.12 | -0.343 ± 0.12 |
| GGCAAGCAAUAUUACGGUAG | -2.27 ± 0.11 | -2.2 ± 0.11 |
| UGACAGCAAUAUUACGUAGA | -2.29 ± 0.085 | -1.14 ± 0.11 |
| AUAGAGCAAUAUUACGGACA | -2.38 ± 0.27 | -0.896 ± 0.33 |
| UACAAGCAAUAUUACGCGAC | -3.51 ± 0.27 | -1.5 ± 0.22 |
| GACCAGCAAUAUUACGAGGG | -3.24 ± 0.2 | -2.57 ± 0.21 |
| UUAAAGCAAUAUUACGAUUA | 0.6 ± 0.089 | 0.448 ± 0.097 |
| UCUCAGCAAUAUUACGCGGC | -4.17 ± 0.42 | -1.86 ± 0.27 |
| ACCAAGCAAUAUUACGUAGC | -3.58 ± 0.13 | -2.44 ± 0.13 |
| UUAAAGCAAUAUUACGACCA | -0.0875 ± 0.22 | 0.312 ± 0.25 |
| CAAGAGCAAUAUUACGGGAU | -2.97 ± 0.17 | -2.59 ± 0.31 |
| AUGCAGCAAUAUUACGGGGC | -4.09 ± 0.23 | -2.54 ± 0.21 |
| GUCGAGCAAUAUUACGCCUA |  | -1.1 ± 0.41 |
| AUAAAGCAAUAUUACGGUAG | -2.82 ± 0.1 | -1.74 ± 0.12 |
| UGAAAGCAAUAUUACGCAAC | -3.98 ± 0.29 | -1.69 ± 0.19 |
| UACCAGCAAUAUUACGGGGC | -4.11 ± 0.29 | -2.72 ± 0.2 |
| GAUUAGCAAUAUUACGUGGU | -2.61 ± 0.18 | -2.47 ± 0.2 |
| AUGUAGCAAUAUUACGAUUG | -1.21 ± 0.15 | -3.05 ± 0.38 |
| UGGCAGCAAUAUUACGCUUC | -2.18 ± 0.28 |  |
| GCAAAGCAAUAUUACGUCAG | -3.89 ± 0.29 | -1.56 ± 0.16 |
| ACAGAGCAAUAUUACGGGCA | -2.58 ± 0.19 | -0.773 ± 0.15 |
| UGCGAGCAAUAUUACGUCUC | -0.82 ± 0.28 |  |

| Sequence | self-splicing fitness (ln) (30 °C) | self-splicing fitness (ln) (37 °C) |
| --- | --- | --- |
| ACAAAGCAAUAUUACGUGGU | -2.87 ± 0.084 | -2.99 ± 0.12 |
| CUUCAGCAAUAUUACGUAUA | -3.15 ± 0.27 | -1.98 ± 0.2 |
| AGACAGCAAUAUUACGGCCG | -1.26 ± 0.078 | -0.403 ± 0.12 |
| GGCCAGCAAUAUUACGAAAA | -2.32 ± 0.24 | -2.23 ± 0.46 |
| CUACAGCAAUAUUACGAAUU | -3.04 ± 0.14 | -2.94 ± 0.24 |
| UUUUAGCAAUAUUACGGUCC | -2.8 ± 0.5 | -1.73 ± 0.43 |
| AUACAGCAAUAUUACGUGAC | -1.57 ± 0.095 | -0.945 ± 0.13 |
| CCGCAGCAAUAUUACGUGCU | -2.05 ± 0.27 |  |
| ACGCAGCAAUAUUACGUAUA | -2.65 ± 0.14 | -2.54 ± 0.13 |
| CCCUAGCAAUAUUACGAGUG | -3.51 ± 0.16 | -2.28 ± 0.12 |
| AGAGAGCAAUAUUACGUUGU | -3.79 ± 0.21 | -3.07 ± 0.2 |
| AGUUAGCAAUAUUACGUUCC | -0.837 ± 0.14 | -0.127 ± 0.18 |
| CGGAAGCAAUAUUACGUCAG | -1.33 ± 0.13 | -0.154 ± 0.17 |
| GAUCAGCAAUAUUACGAUUC | -3.05 ± 0.38 | -1.79 ± 0.27 |
| CUUAAGCAAUAUUACGCACA | -2.43 ± 0.35 | -1.87 ± 0.4 |
| UGUCAGCAAUAUUACGUCUC | -2.3 ± 0.15 | -1.86 ± 0.22 |
| CCUUAGCAAUAUUACGAGCA | -2.64 ± 0.22 | -3.17 ± 0.33 |
| CGGAAGCAAUAUUACGCCGU | -2.88 ± 0.44 | -1.91 ± 0.28 |
| AGCGAGCAAUAUUACGACCU | -0.933 ± 0.15 | -0.654 ± 0.15 |
| GCUAAGCAAUAUUACGUCCG | -1.53 ± 0.13 | -0.712 ± 0.15 |
| GGACAGCAAUAUUACGGUGU | -2.84 ± 0.11 | -1.89 ± 0.12 |
| UAACAGCAAUAUUACGUACC | -0.513 ± 0.19 | -1.7 ± 0.24 |
| UAGUAGCAAUAUUACGGGCU | -1.39 ± 0.2 | -2.47 ± 0.27 |
| AUAAAGCAAUAUUACGCCCU | 0.347 ± 0.15 | 0.95 ± 0.18 |
| CCAGAGCAAUAUUACGUAGG | -3.25 ± 0.19 | -2.6 ± 0.25 |
